Measurements from the supplement of paper PMC9170038.

system: K4 kissing-loop RNA reporter; experiment: apparent KD of K4 kissing-loop reporter; higher = weaker reporter binding; settings: Eterna round: R107; input ligand: FMN 200 uM
Experimental: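 RNA-MaP round R107: designed RNA switches with theophylline, tryptophan, arginine or FMN aptamers are transcribed on-chip within common flanks. They are titrated with a labelled K4 kissing-loop RNA reporter in RNA-MaP buffer (100 mM Tris pH 7.5, 80 mM KCl, 4 mM MgCl2), without ligand or with the indicated ligand. Median apparent KD per design.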
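Also: bound reporter read as fluorescence of individual clusters on recovered sequencing chips by microscopy, with normalized cluster intensities fitted with a binding model.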

In order of rising “apparent KD of K4 kissing-loop reporter” value:
1. ACUGAGCAUGCGGCCGCCACUUCAGAACGUCGCCCGGAGGGCGACGCCUCCGCAGUGAUGUUGCGGAGGACCGGGCAUGUUCAGA [Omei KL Tryp B Exc A v4]  0.0904 µM
2. UGCACGGGCUCGGCCGCCACUCCAGCGGGUCGAAAGGUCCGCUACUGAGUGAUGUUCGGUUGGAGGAGGACCGGGAGCCCGUGCA [#2 Exclusion - Tryptophan B Attempt #28 (HarryS)]  0.0989 µM
3. AAAAUUAUCUGAAGGAGCGUGAAAUAAUAUUAAACAUAACAACCCAGUGAUGUUGGGUUAUCACAGGUAGGUCGCAGAUGUAGAA [Same State Arginie B GF 25]  0.106 µM
4. GGGUCUGCUCGAAGGAGCGCCCUGACAGGUUGCUGCCGUGGGCAGUGAUGUUGCUCAGUCCGGCAGGUAGGUCGCGAGCAGACCC  0.109 µM
5. UGCAGUGAUGUUGCUAUUUUUCUUGAUUAACGAGGACCGGUACGGCCGCCACUCGAUUUCUCUCUAAUCCAGUAUGUUGUUUAAU [whbob_EX_Tryp_A_t4]  0.114 µM
6. UGACUGGACUGAAGGAGCGCGAAACUCCUAGUGAUGUUAGGAAAACGAGACAAAGUCUCGACGCAGGUAGGUCGCAGUCUAGUCU  0.125 µM
7. UACAUUGCAGUCUUCUUCGUCCUAGAAGACUAGGAUAUCAGGAAACUGAGAAGGAGUCUCUGCAGUGAUGUUGCAGCUAGGACGA [[K]'-[F2]'-[F1]'-[F1]-[F2]-[K1]-[K2]-[F]''_Design1]  0.128 µM
8. GGAGCAGGUGAAGGAUAUCCCGGGCCAGAGUGAUGUUCUGGAUCCCUUGCCGUGUCUAAACGGGUGGGAGAAGGUCACUGAUAAG [Erinxe]  0.137 µM
9. AAUAUAUAGUGAAGGAGCGCGAUAAGCAGUGAUGUUGCUUAGCUAUUAUUCAUUAUUUUUACGCAGGUAGGUCGCACUAUAUAUA [JR_ExcArginiB_Sub014]  0.138 µM
10. GGCAGUGAUGUUGCCUAAGCAACGCAUGCAGAGGAUAUUCGUUCGGGAAGAAGGCUGCAGCGUUCUCUCGUCAGUGAUGUUGGCG [Same State FMN A GF 24]  0.14 µM
11. CCUGAAUCAGUGAGUGAUGUUCACGUCGAUACCAGCUAGGAUACUAGCCCUUGGCAGCGACAAUUGCCAAGUGUGGCUAGUCAAA [Theo B SS t8]  0.14 µM
12. UCGGACCCUGGAGGAUAUGAGUCUAGUGAUGUUAGGCGGUCCAUGCCGGUGCGGCGUUAUGCCCUUUUAGAAGGCCAGGGUCCGA [#2 Exclusion - FMN B Attempt #14 (HarryS)]  0.143 µM
13. AACUUUUAAUGAAUUACAUUUUAUUUAUCUCGAGGACCGGUACGGCCGCCACUCGUACUAUAGUGAUGUUAUAGAUAAGUCCUAA [JR_ExcTryptoA_Sub019]  0.149 µM
14. AAGUGUGUGGCGGCCGCCACUAGAAUCCAGUGAUGUUGGAGAUAUCAGGUAACUGAUAUCCAACAUAGGACCGGGCCAUAUAGAA [Same State - Tryptophan B (Freestyle 11)]  0.151 µM
15. GCAUCCUCUGCAGGAUAUCGCGGAGUGAUGUUCCGCGCAUGCCAUAGCGAAAGCUAUGGCAUGCGACGAGAAGGGCAGAGGAUGC  0.165 µM
16. ACGUAGUUCUAGGAUACCAGCCAAAUAGCCAGGACGAGAGUCCUGGCUGCCAGUGAUGUUGGCCCUUGGCAGCCUAGAACUACGA [Theo B Ex Mod Omei v10]  0.166 µM
17. AGUGAUGUAUGGCGGUUGGUCACUUAGGAUCAGGAUAUAUAAACAAAUAGAAGGGAUGGCGGAGUGAUGUUCCGCCGGCCGCCAU [FMN A Exl V2]  0.173 µM
18. AGAACUGUCUGAGAUACCAGCCAGGAAGUGAUGUUUCCAGCUCGACGAAAGUCGAGCCAUGGCCCUUGGCAGCUCAGACAGUUCA [Omei KL Theo B SS A v4]  0.178 µM
19. GGCCUGGUCGCCUAGUGAUUGUCGGUAGGACGAGGACCGGUACGGCCGCCACUCGGCUUACCCAGUGAUGUUGGGUAUCCGUGGC [Onercelama]  0.194 µM
20. AGGUUUUGAUUAGGAUAUGCACUGAGGAGGAGAAUAUAGUGAUGUUAUAUAAUAGGAAUUAGUAGAGUAGAAGGGAUUGAGGUUU [SSFMNB.U]  0.206 µM
21. AUACGCGAUAGCGUAUAUAACAAAUCAGAAGGAGCGUGGAAGUACACAGGUAGGUCGCUGAAAAUAGGACUAGUGAUGUUAGUUA [JR_Nu_SSArginiA_Sub026]  0.211 µM
22. CUUGCCCUUUCGGCCGCCACUCCGAGUGAUGUUGGGAUGUUCGGUGCAGCCAUUUAGAUGUCAGUGAGGACCGGGAAAUUAUGCG [theeternabot_exclusion_KL_Trp_B_9]  0.22 µM
23. GGAGUUACCUGGGAUACCAGUCGGAGUCCGAGAGCUCGGAGUGAUGUUCUGGGAUGUUUCGGCCCUUGGCAGCUCUGGGACUCCC [#2 Exclusion - Theophylline B Attempt #10 (HarryS)]  0.22 µM
24. GCGCGGCAGGCGGCCGCCACUCUGACGAGCCACAGUGAUGUUGUGGUCGGAGUAACGUCUUCAUAGAGGACCGGGUUUGUUGUUC [Same State Typtophan A GF 26]  0.224 µM
25. UGGAGUUGACGAAAAGUCAACUCCUGAGAAGGAGCGGACGAAAGUCCAGGUAGGUCGCUCACUACCAGUGAUGUUGGUACUUUAA  0.228 µM
26. UUUGGCCACAGAGAUACCAGUCAUAUCGCUCUGGAGUGAUGUUCCGGAACAUGCGGAGAAGACCCUUGGCAGCUCAUGACGGUAA [Exclusion Theophylline B GF 2]  0.232 µM
27. UCGACAGUGAACGAUACCAGCGUCACGUGGCUGGUGGUCACAUGAGUGAUGUUCAUGUAACGCCCUUGGCAGCGUGCACGUAUCC [KL-XTheo-B9]  0.234 µM
28. AGAAGGUCAAAGACCUUCGUGCACACUGAUACCAGUCGCGAAAGCGACCCUUGGCAGCAGGGCAGUGAUGUUGCCAAGUGCACAA [Omei KL Theo A SS A v2]  0.252 µM
29. GCCGUACGCAUGGAUACCAGUCUUUCACGACUGGACAUGGAGUGAUGUUUCGUGAUGCUAGACCCUUGGCAGCCAUGCGUACGGC  0.255 µM
30. ACAGAGGUAACCUGCAGUGAUGUUGCGGAUACCAGCUCACGAAACAGCCCUUGGCAGCCGCCGUCACUAACACGGUGGAUACAGU [theeternabot_exclusion_KL_Theo_A_49]  0.257 µM
31. UCGGAUGUUCUGUCGAGAUGAGCAAUAGCACGAGGACCGGUACGGCCGCCACUCGACCCAGUGAUGUUGGGUGGCUAAGUUCAGC [Geragean]  0.265 µM
32. GGUCGAGUGAUGUUCGAUGUAAUGCAUUCAGAGGAUAUAGGAUUGGCUAGAAGGCUGAAUCGUUCUUCGAGUGAUGUUCGAGGAU [Same State FMN A GF 7]  0.286 µM
33. CGAGUGAUGUUCGUUCUUUUAUUUUUUUGACAGGAUAUGCGGAAACGCAGAAGGGUCACCUUUGAGUUAAAAGAAUUUAAGUUAU [Ex FMN A 24]  0.309 µM
34. GCAGCAAAUAAACGAGUGAUGUUCGACGAUACCAGCCUCGAUAGAGGCCCUUGGCAGCGUAAAUGAUCACAAAGCCAAGGGCUGC [#SwitchBubble 1]  0.333 µM
35. GCGCGGGAGUGAUGUUCCAAGUGGUGUUAACGAGGACCGGUACGGCCGCCACUCGUUACGGCCGGGCCGUAGGAUAAACUGGCGC [Same State - Tryptophan A (Freestyle 15)]  0.373 µM
36. UUAUCUAUAUUCGAUACCAGUACCCUUUGUGUUGAUCCUUUUAUCAGUGAUGUUGAUGUGUACCCUUGGCAGCGGGUAUGGGUUU [KL-XTheo-B16]  0.384 µM
37. UUGUUUGGUUGAGAGGUUGGGCGAGAUGAUACCAGUAUAGUAGAGUACCCUUGGCAGCAUAGGAGAGAUAUAGUGAUGUUGUAUG [SSTheophA.U]  0.39 µM
38. AGUGAUGUUUUUUUUAAGAGUGAUGUUUUUCGAGGACCGGUACGGCCGCCACUCGAGUGAUGAGUGAGGUGUUGUGAUGUUUAGU [cxmullin]  0.436 µM
39. AAGUAGCUCUCGGCCGCCACUCCUCAGUGAUGUUGAGAUAUUAAGAGACAAUUGUCUCAUAUAAAGAGGACCGGGAGAGCUACAA [AK5 SS Tryptophan B]  0.445 µM
40. GUCCUGAGUGAUGUUCGGGUCGUUCGGGAAGGAGCGCCCGCAAGGGCAGGUAGGUCGCCCGGAUCUCUCAGGUAACUGAGAGACC [#2 Same State - Arginine A Attempt #29 (HarryS)]  0.563 µM
41. AAGCAGUCUCUUGUAAUCAUCGAAGAUGAACGAGGACCGGUACGGCCGCCACUCGGAGUGAUGUUCCGAAGACUGCAAAAUAAAA [MatMod 16 - Jieux - Exclusion - Tryptophan A]  0.65 µM
42. GGGCGUGGCGCGGCCGCCACUGCGCCUGGGUGCUCGCUGAGUGAUGUUCGUCGGCGGUUGGGUGGUAGGACCGGGUGCUGGCCGG [BDazzled - #12 SS Tryptophan B]  0.773 µM
43. GUAUUGUGCCUGGAUACCAGACACCCGAGUGAUGUUCGGAGCAGAGUGAUGUUCUAAUAAGUCCCUUGGCAGCCGGUCGCAGUCG [Same State Theophylline B gf 4]  0.81 µM

same assay, conditions: Eterna round: R107; input ligand: arginine 13.2 mM

In order of falling “apparent KD of K4 kissing-loop reporter” value:
1. GUAUUGUGCCUGGAUACCAGACACCCGAGUGAUGUUCGGAGCAGAGUGAUGUUCUAAUAAGUCCCUUGGCAGCCGGUCGCAGUCG [Same State Theophylline B gf 4]  0.869 µM
2. GCAGCAAAUAAACGAGUGAUGUUCGACGAUACCAGCCUCGAUAGAGGCCCUUGGCAGCGUAAAUGAUCACAAAGCCAAGGGCUGC [#SwitchBubble 1]  0.375 µM
3. CGAGUGAUGUUCGUUCUUUUAUUUUUUUGACAGGAUAUGCGGAAACGCAGAAGGGUCACCUUUGAGUUAAAAGAAUUUAAGUUAU [Ex FMN A 24]  0.284 µM
4. AGAAGGUCAAAGACCUUCGUGCACACUGAUACCAGUCGCGAAAGCGACCCUUGGCAGCAGGGCAGUGAUGUUGCCAAGUGCACAA [Omei KL Theo A SS A v2]  0.278 µM
5. UCGGAUGUUCUGUCGAGAUGAGCAAUAGCACGAGGACCGGUACGGCCGCCACUCGACCCAGUGAUGUUGGGUGGCUAAGUUCAGC [Geragean]  0.239 µM
6. AACUUUUAAUGAAUUACAUUUUAUUUAUCUCGAGGACCGGUACGGCCGCCACUCGUACUAUAGUGAUGUUAUAGAUAAGUCCUAA [JR_ExcTryptoA_Sub019]  0.212 µM
7. AUACGCGAUAGCGUAUAUAACAAAUCAGAAGGAGCGUGGAAGUACACAGGUAGGUCGCUGAAAAUAGGACUAGUGAUGUUAGUUA [JR_Nu_SSArginiA_Sub026]  0.193 µM
8. CUUGCCCUUUCGGCCGCCACUCCGAGUGAUGUUGGGAUGUUCGGUGCAGCCAUUUAGAUGUCAGUGAGGACCGGGAAAUUAUGCG [theeternabot_exclusion_KL_Trp_B_9]  0.128 µM
9. GGCAGUGAUGUUGCCUAAGCAACGCAUGCAGAGGAUAUUCGUUCGGGAAGAAGGCUGCAGCGUUCUCUCGUCAGUGAUGUUGGCG [Same State FMN A GF 24]  0.115 µM
10. UCGGACCCUGGAGGAUAUGAGUCUAGUGAUGUUAGGCGGUCCAUGCCGGUGCGGCGUUAUGCCCUUUUAGAAGGCCAGGGUCCGA [#2 Exclusion - FMN B Attempt #14 (HarryS)]  0.0788 µM
